EC50 and IC50 data for one molecule are collected here from US20240294622A1 (SUZHOU TRANSCENTA THERAPEUTICS, published 2024).

The target in one experiment is T1, XM5-Fc (human (hGREM1 with residues 123-143 …)).
T1 construct: also called gremlin 1-DAN fusion protein
T1 chain: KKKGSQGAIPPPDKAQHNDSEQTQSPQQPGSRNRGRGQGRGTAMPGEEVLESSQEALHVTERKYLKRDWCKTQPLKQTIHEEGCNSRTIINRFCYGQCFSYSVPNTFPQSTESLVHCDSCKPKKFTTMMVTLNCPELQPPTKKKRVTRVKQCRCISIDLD
Nature of the experiment: ELISA on coated XM5-Fc (column XM5). The method, then:
Binding affinities to hGREM1 and XM5 were also compared. Briefly, XM5-Fc or Gremlin-his […] was coated. 100 μl of block solution consisting of PBS+1% BSA+1% normal goat serum+0.5% Tween 20 (Sigma) was added to each well and incubated at room temperature for 2 hours. 4-fold serial antibody dilution from 2 μg/ml were added. Afterward the plates were washed three times with 200 ul of PBS+0.1% Tween20 followed by adding 100 μl/well 1:10000 Goat anti mouse IgG-HRP (abeam), and incubate for 1 hour at room temperature. They were then washed 3× with PBS+0.1% Tween20. Finally, 100 μl/well of TMB (InnoReagents) was added to each well and after 2 minutes add 50 ul of stop solution to each well. The plates were read on a Multiscan FC microplate reader (Thermo Scientific) at […]. The EC50 values were show in table below.
In general terms: ELISA stands for enzyme-linked immunosorbent assay.

In experiment [1] the target is T2, HGREM1-His (ACRO) (human, UniProt O60565 25-184).
T2 construct: Lys25-Asp184 of NP_037504 with C-terminal polyhistidine tag (ACRO GR1-H52H3); they are put here; also called hGREM1 (ACRO); human gremlin (ACRO)
T2 sequence: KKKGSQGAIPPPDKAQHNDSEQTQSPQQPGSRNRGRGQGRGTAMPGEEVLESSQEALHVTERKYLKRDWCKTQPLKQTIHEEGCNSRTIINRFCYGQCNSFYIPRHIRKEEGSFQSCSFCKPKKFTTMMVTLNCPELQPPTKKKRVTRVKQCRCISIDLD
Nature of the experiment: blocking ELISA, Human Gremlin-1 binding to FGFR1. The method, then: Next, 0.25 μg/ml of gremlin was selected to test the blocking activity. The ability of antibodies to block Gremlin binding to human FGFR1-Fc was examined via ELISA. Plates were coated with recombinant FGFR1-Fc (2 μg/ml) overnight and then serial dilutions of antibodies were incubated with 0.25 μg/ml of human Gremlin-his modified for 1 h at RT before this complex was added to coated plates and allowed to incubate for an additional hour at RT. The plates were then washed and added with anti-his HRP (GenScript). Plates were then developed with a TMB solution and stopped by adding stop solution. The plates were read on a plate reader at 450 nm. […] Humanized anti-GREM1 antibodies provided herein (e.g., Hu14E3, Hu22F1) are expected to show the similar technical effect as their chimeric counterparts in blocking the binding of hGREM1 to FGFR1.

Experiment [2] concerns the target T2, HGREM1-His (ACRO). As to the kind of experiment: ELISA on coated Gremlin-his; unit from the axis Ab(nM). The method, then: Clear polystyrene plates (BEAVER) were coated with 100 μl/well of a 0.5 μg/ml human gremlin (ACRO) and DAN (Sinobiological) in high pH coating buffer overnight at 4° C. Then the plates were washed once on an automatic plate washer using PBS+0.1% Tween 20 (Sigma). 100 μl of block solution consisting of PBS+1% BSA+1% normal goat serum+0.5% Tween 20 (Sigma) was added to each well and incubated at room temperature for 2 hours. Then 100 ul of antibodies (hybridoma or chimeric antibody 36F5, chimeric antibody 67G11, chimeric antibody 42B9) in antibody dilution buffer containing PBS+1% BSA+1% normal goat serum+0.01% Tween 20 starting from 2 μg/ml (13.33 nM) and then 4 fold serial dilution were added to each well of the plate and incubated for 1 hours at room temperature. Afterward the plates were washed three times with 200 ul of PBS+0.1% Tween20 followed by adding 100 μl/well 1:10000 Goat anti mouse IgG-HRP or mouse anti-human IgG-HRP (abcam), and incubate for 1 hour at room temperature. They were then washed 3× with PBS+0.1% Tween20. Finally, 100 μl/well of TMB (InnoReagents) was added to each well and after 2 minutes add 50 ul of stop solution to each well. The plates were read on a Multiscan FC microplate reader (Thermo Scientific) at 450 nm.

For experiment [3], the target named is T2, HGREM1-His (ACRO). As to the kind of experiment: blocking ELISA, Human Gremlin-1 binding to BMP2; column Percentage. The method, then: In addition, the ability of serial dilutions of antibodies provided herein to block Gremlin binding to human BMP2/4/7 was also examined via ELISA. Plates were coated with recombinant human BMP2/4/7 (0.5 μg/ml) overnight and then serial dilutions of antibodies were incubated with 1 μg/ml of human Gremlin-his modified for 1 h at RT before this complex was added to coated plates and allowed to incubate for an additional hour at RT. The plates were then washed and added with anti-his HRP (GenScript). Plates were then developed with a TMB solution and stopped by adding stop solution. The plates were read on a plate reader at 450 nm. […] The chimeric anti-gremlin 1 antibodies (69H5-chi) and chimeric anti-gremlin 1 antibodies (22F1-chi) also can inhibit the binding of gremlin to BMP2 and BMP4 (see, FIG. 3E and FIG. 3F). The chimeric anti-gremlin 1 antibodies (56C11-chi) can inhibit the binding of gremlin to BMP2 (see, FIG. 3E).

B1: 36F5 (antibody, V domains shown)
VH: QVQLQQSGAELARPGASVKLSCKASGYSFTSSGIGWVKQRSGQGLEWIGEIYPRSGNTYNNEKFKGKATLTADKSSSTVYMELRSLTSEDSAVYFCVREAYSHHYYAMDYWGQGTSVTVFS
VL: DVLMTQTPLSLPVSLGGQASISCRSSQSLLHSNGNTYLEWYLQKPGQSPKLLIYKVSNRFSGVPDRLSGSGSGTDFTLKISRVEAEDLGVYYCFQGSHVPFTFGSGTKLEIN
notes: mouse hybridoma antibody; also called hybridoma 36F5
Usually EC50 stands for the concentration giving half of the maximal effect. Usually IC50 stands for the concentration that inhibits the measured activity by half. A lower IC50 goes with inhibition by little substance. With B1, the 50% effective concentration (EC50) was 0.00692 µg/mL in the experiment with XM5-Fc and 0.0309 nM in the experiment with HGREM1-His (ACRO) [2]. The values for the IC50 with HGREM1-His (ACRO) [1] and with HGREM1-His (ACRO) [3] were 1.84 µg/mL and 0.604 µg/mL, respectively.
